The assay addresses BDBV GP[change] (recombinant GP form that lacks the highly glycosylated mucin-like domains) (Bundibugyo virus (BDBV)). Description: negative-stain single-particle electron microscopy.

Consider “BDBV GP[change] (recombinant GP form that lacks the highly glycosylated mucin-like domains) (domain or fragment)”, for which the stoichiometry N was 3.

One may read the stoichiometry N as the number of molecules, sites or subunits per partner or assembly.

The values above are taken from publication PMC4733404.
